The values below come from patent US20240327534A1 (HARPOON THERAPEUTICS, published 2024).

The target of test [1] is T1, human BCMA on BCMA expressing cell lines (human, UniProt Q02223 1-184).
T1 sequence: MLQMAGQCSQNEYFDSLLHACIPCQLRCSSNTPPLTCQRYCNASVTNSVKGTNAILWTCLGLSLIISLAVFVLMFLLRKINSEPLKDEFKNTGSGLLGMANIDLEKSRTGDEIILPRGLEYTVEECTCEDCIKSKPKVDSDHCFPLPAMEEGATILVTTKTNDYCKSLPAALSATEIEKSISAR
In words: cell-based or functional assay.

The target of test [2] is T2, human BCMA protein (human, UniProt Q02223 1-54, limits assumed).
T2 sequence: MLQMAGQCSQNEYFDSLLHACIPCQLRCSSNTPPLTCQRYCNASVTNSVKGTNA
In words: affinity to human BCMA protein, method not stated.

B1: BCMA targeting trispecific protein 01D06 (other)
VHH: EVQLVESGGGLVQPGRSLTLSCAASTNIFSRSPMGWYRQAPGKQRELVAAIHGDSTLYADSVKGRFTISRDNAKNSIYLQMNSLRPEDTALYYCNKVPWGDYHPRNVTWGQGTQVTVSS
notes: trispecific; not shown: anti-albumin domain, anti-CD3 domain and the linkers of the trispecific (TriTAC) format
For orientation: Kd means the equilibrium constant for the complex coming apart. Higher therefore signals weaker binding. B1: the “TDCC EC50 (EJM cells)” value in test [1] was 13.5 pM. The same molecule showed a dissociation constant (Kd) in test [2] of 14.9 nM.

B2: BCMA targeting trispecific protein 01F02 (other)
VHH: EVQLVESGGGLVQPGRSLTLSCAASTNIFSHSPMGWYRQAPGKQRELVAAIHGTSTLYADSVKGRFTISRDNAKNSIYLQMNSLRPEDTALYYCNKVPWGRYHPRNVYWGQGTQVTVSS
notes: trispecific; not shown: anti-albumin domain, anti-CD3 domain and the linkers of the trispecific; the C-terminal His6 that follows them is left out
Take B2: the “TDCC EC50 (EJM cells)” value in test [1] is 225 pM. Besides, in test [2], the dissociation constant Kd turned out to be 41.3 nM.

B3: BCMA targeting trispecific protein 01D07 (other, not shown: large carriers; small tags and cut ends)
VHH: EVQLVESGGGLVQPGRSLTLSCAASTNIFSASPMGWYRQAPGKQRELVAAIHGSSTLYADSVKGRFTISRDNAKNSIYLQMNSLRPEDTALYYCNKVPWGDYHPRNVNWGQGTQVTVSS
notes: trispecific
Regarding B3, the “TDCC EC50 (EJM cells)” value in test [1] was found to be 19.6 pM. Moreover, the Kd in test [2] was found to be 19.3 nM.

B4: BCMA targeting trispecific protein 01F12 (other)
VHH: EVQLVESGGGLVQPGRSLTLSCAASTNIFRISPMGWYRQAPGKQRELVAAIHGDSTLYADSVKGRFTISRDNAKNSIYLQMNSLRPEDTALYYCNKVPWGRYHPRNVYWGQGTQVTVSS
notes: as for B2
For B4, the “TDCC EC50 (EJM cells)” value in test [1] was 392 pM. The Kd in test [2] worked out at 40.5 nM.

B5: BCMA targeting trispecific protein 01E03 (other, not shown: large carriers; small tags and cut ends)
VHH: EVQLVESGGGLVQPGRSLTLSCAASTNITSISPMGWYRQAPGKQRELVAAIHGDSTLYADSVKGRFTISRDNAKNSIYLQMNSLRPEDTALYYCNKVPWGDYHPGNVYWGQGTQVTVSS
notes: trispecific
Consider B5, for which the “TDCC EC50 (EJM cells)” value in test [1] is 2.98 pM. This molecule had a Kd in test [2] of 6.36 nM.

B6: BCMA targeting trispecific protein 01G01 (other)
VHH: EVQLVESGGGLVQPGRSLTLSCAASTNIVSISPMGWYRQAPGKQRELVAAIHGDSTLYADSVKGRFTISRDNAKNSIYLQMNSLRPEDTALYYCNKVPWGDYHPRRVYWGQGTQVTVSS
notes: trispecific; not shown: the C-terminal 6xHis tag follows those missing domains and is left out
For the molecule B6, in test [1], the “TDCC EC50 (EJM cells)” value worked out at 5.83 pM. For the same molecule, in test [2], the Kd was 14.6 nM.

B7: BCMA targeting trispecific protein 01E06 (other, not shown: large carriers; small tags and cut ends)
VHH: EVQLVESGGGLVQPGRSLTLSCAASTNIFSLSPMGWYRQAPGKQRELVAAIHGDSTLYADSVKGRFTISRDNAKNSIYLQMNSLRPEDTALYYCNKVPWGDYHPRNVYWGQGTQVTVSS
notes: trispecific
On to B7, for which, in test [1], the “TDCC EC50 (EJM cells)” value amounted to 3.77 pM. The Kd in test [2] turned out to be 8.91 nM.

B8: BCMA targeting trispecific protein 01F04 (other)
VHH: EVQLVESGGGLVQPGRSLTLSCAASTNIDSISPMGWYRQAPGKQRELVAAIHGFQTLYADSVKGRFTISRDNAKNSIYLQMNSLRPEDTALYYCNKVPWGDYHPGNVYWGQGTQVTVSS
notes: trispecific; not shown: the C-terminal His6 follows those missing domains and is left out
On to B8, for which the “TDCC EC50 (EJM cells)” value in test [1] is 2.21 pM. In test [2], binding was characterised by a dissociation constant (Kd) of 6.55 nM.

B9: BCMA targeting trispecific protein 01F10 (other)
VHH: EVQLVESGGGLVQPGRSLTLSCAASSNIFSISPMGWYRQAPGKQRELVAAIHGESTLYADSVKGRFTISRDNAKNSIYLQMNSLRPEDTALYYCNKVPWGDYHPRNVTWGQGTQVTVSS
notes: as for B6
Take B9: in test [1], the “TDCC EC50 (EJM cells)” value turned out to be 7.44 pM. Besides, in test [2], the Kd is 14.4 nM.

B10: BCMA targeting trispecific protein 01E07 (other)
VHH: EVQLVESGGGLVQPGRSLTLSCAASTNIPSISPMGWYRQAPGKQRELVAAIHGQSTLYADSVKGRFTISRDNAKNSIYLQMNSLRPEDTALYYCNKVPWGDYHPRNVQWGQGTQVTVSS
notes: trispecific; not shown: anti-albumin domain, anti-CD3 domain and the linkers of the trispecific (TriTAC) chain; the C-terminal 6xHis tag follows these missing domains and is left out
For B10, the “TDCC EC50 (EJM cells)” value in test [1] turned out to be 19.2 pM. The same molecule yielded a Kd in test [2] of 19.9 nM.

B11: BCMA targeting trispecific protein 01G06 (other, not shown: large carriers; small tags and cut ends)
VHH: EVQLVESGGGLVQPGRSLTLSCAASTNIFSRSPMGWYRQAPGKQRELVAAIHGFETLYADSVKGRFTISRDNAKNSIYLQMNSLRPEDTALYYCNKVPWGDYHPRNVLWGQGTQVTVSS
notes: trispecific
For the molecule B11, in test [1], the “TDCC EC50 (EJM cells)” value worked out at 19.2 pM. In test [2], binding was put at a Kd of 17 nM.

B12: BCMA targeting trispecific protein 01F05 (other)
VHH: EVQLVESGGGLVQPGRSLTLSCAASTNIFSSSPMGWYRQAPGKQRELVAAIHGFSTWYADSVKGRFTISRDNAKNSIYLQMNSLRPEDTALYYCNKVPWGRYHPRNVYWGQGTQVTVSS
notes: trispecific; not shown: The C-terminal 6xHis tag is left out because it follows these missing domains
As to B12, the “TDCC EC50 (EJM cells)” value in test [1] amounted to 37.2 pM. This molecule also yielded a dissociation constant (Kd) in test [2] of 16.7 nM.

B13: BCMA targeting trispecific protein 01E04 (other, not shown: large carriers; small tags and cut ends)
VHH: EVQLVESGGGLVQPGRSLTLSCAASTNIASISPMGWYRQAPGKQRELVAAIHGTSTLYADSVKGRFTISRDNAKNSIYLQMNSLRPEDTALYYCNKVPWGDYHPGNVYWGQGTQVTVSS
notes: trispecific
As for B13, the “TDCC EC50 (EJM cells)” value in test [1] stood at 2.67 pM. For the same molecule, the Kd in test [2] was determined as 7.29 nM.

B14: BCMA targeting trispecific protein 01F03 (other)
VHH: EVQLVESGGGLVQPGRSLTLSCAASTNIFSESPMGWYRQAPGKQRELVAAIHGNSTLYADSVKGRFTISRDNAKNSIYLQMNSLRPEDTALYYCNKVPWGTYHPRNVYWGQGTQVTVSS
notes: trispecific; not shown: the C-terminal 6xHis tag follows those domains and is left out
For B14, the “TDCC EC50 (EJM cells)” value in test [1] worked out at 76.4 pM. In addition, binding in test [2] was characterised by a dissociation constant (Kd) of 15 nM.

B15: BCMA targeting trispecific protein 01F09 (other)
VHH: EVQLVESGGGLVQPGRSLTLSCAASTNISSISPMGWYRQAPGKQRELVAAIHGHSTLYADSVKGRFTISRDNAKNSIYLQMNSLRPEDTALYYCNKVPWGRYHPRNVYWGQGTQVTVSS
notes: as for B2
In the case of B15, the “TDCC EC50 (EJM cells)” value in test [1] was 945 pM. Besides, in test [2], the dissociation constant Kd was 52.8 nM.

B16: BCMA targeting trispecific protein 01E08 (other, not shown: large carriers; small tags and cut ends)
VHH: EVQLVESGGGLVQPGRSLTLSCAASTNIFSQSPMGWYRQAPGKQRELVAAIHGDSTLYADSVKGRFTISRDNAKNSIYLQMNSLRPEDTALYYCNKVPWGDYHPGNVCWGQGTQVTVSS
notes: trispecific
As for B16, in test [1], the “TDCC EC50 (EJM cells)” value was found to be 1.5 pM. In addition, in test [2], the Kd was 5.56 nM.

B17: BCMA targeting trispecific protein 01E05 (other)
VHH: EVQLVESGGGLVQPGRSLTLSCAASTNIFSRSPMGWYRQAPGKQRELVAAIHGTSTLYADSVKGRFTISRDNAKNSIYLQMNSLRPEDTALYYCNKVPWGKYHPRNVYWGQGTQVTVSS
notes: as for B6
B17: the “TDCC EC50 (EJM cells)” value in test [1] was determined as 10.8 pM. In test [2], this molecule returned a dissociation constant Kd of 11.7 nM.

B18: BCMA targeting trispecific protein 01E10 (other)
VHH: EVQLVESGGGLVQPGRSLTLSCAASTNIESISPMGWYRQAPGKQRELVAAIHGKSTLYADSVKGRFTISRDNAKNSIYLQMNSLRPEDTALYYCNKVPWGDYHPRRVYWGQGTQVTVSS
notes: as for B14
Turning to B18, the “TDCC EC50 (EJM cells)” value in test [1] was 62.3 pM. This molecule came in with a Kd in test [2] of 18.5 nM.

B19: BCMA targeting trispecific protein 01G04 (other, not shown: large carriers; small tags and cut ends)
VHH: EVQLVESGGGLVQPGRSLTLSCAASTNIDSISPMGWYRQAPGKQRELVAAIHGNSTLYADSVKGRFTISRDNAKNSIYLQMNSLRPEDTALYYCNKVPWGDYHPRMVYWGQGTQVTVSS
notes: trispecific
For B19, the “TDCC EC50 (EJM cells)” value in test [1] stood at 24.1 pM. In addition, in test [2], the equilibrium dissociation constant (Kd) turned out to be 11.7 nM.

B20: BCMA targeting trispecific protein 01D10 (other)
VHH: EVQLVESGGGLVQPGRSLTLSCAASTNIFSASPMGWYRQAPGKQRELVAAIHGSSTLYADSVKGRFTISRDNAKNSIYLQMNSLRPEDTALYYCNKVPWGRYHPRNVYWGQGTQVTVSS
notes: as for B2
For B20, the “TDCC EC50 (EJM cells)” value in test [1] was found to be 453 pM. Further, the Kd in test [2] turned out to be 53.9 nM.

B21: BCMA targeting trispecific protein 01F08 (other)
VHH: EVQLVESGGGLVQPGRSLTLSCAASTNITSVSPMGWYRQAPGKQRELVAAIHGPSTLYADSVKGRFTISRDNAKNSIYLQMNSLRPEDTALYYCNKVPWGDYHPTNVYWGQGTQVTVSS
notes: as for B14
Take B21: in test [1], the “TDCC EC50 (EJM cells)” value is 71.2 pM. Binding in test [2] was characterised by a dissociation constant (Kd) of 21.4 nM.
